The values that follow come from publication PMC4695337, “Crystal Structure of a Eukaryotic GEN1 Resolving Enzyme Bound to DNA”.

The target of one series is T1, CtGEN1 D141A (Chaetomium thermophilum? (printed C. …, UniProt G0RYN2 1-487, D141A)).
T1 sequence: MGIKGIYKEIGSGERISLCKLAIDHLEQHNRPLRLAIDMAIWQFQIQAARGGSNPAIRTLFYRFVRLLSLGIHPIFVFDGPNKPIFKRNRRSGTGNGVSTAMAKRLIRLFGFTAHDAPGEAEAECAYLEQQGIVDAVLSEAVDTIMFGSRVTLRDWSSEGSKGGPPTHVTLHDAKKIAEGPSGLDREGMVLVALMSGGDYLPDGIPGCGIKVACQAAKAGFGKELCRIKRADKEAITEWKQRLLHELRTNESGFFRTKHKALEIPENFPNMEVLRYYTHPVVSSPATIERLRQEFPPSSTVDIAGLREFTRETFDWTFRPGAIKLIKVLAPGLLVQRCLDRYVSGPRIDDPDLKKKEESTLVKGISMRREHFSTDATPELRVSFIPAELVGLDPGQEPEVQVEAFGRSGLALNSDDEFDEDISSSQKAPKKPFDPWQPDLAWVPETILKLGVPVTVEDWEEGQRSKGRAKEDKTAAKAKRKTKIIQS
As to the kind of experiment: EMSA; EMSA fitted to Hill equation, protein 2.1-43 nM (monomer); binding buffer and temperature not in material. Crystals: 100 mM HEPES pH 7.5, 2 mM MgCl2, 20% PEG10000, 7 C. Particulars: protein: recombinant; tags: C-terminal His6; chain copies: 2; four-way junction of 4 strands (b/h/r/x). In general terms: A gel shift assay detects complexes by their altered migration in electrophoresis.

The target of the next series is T2, CtGEN1 E120A (Chaetomium thermophilum? (printed C. …, UniProt G0RYN2 1-487, E120A)).
T2 sequence: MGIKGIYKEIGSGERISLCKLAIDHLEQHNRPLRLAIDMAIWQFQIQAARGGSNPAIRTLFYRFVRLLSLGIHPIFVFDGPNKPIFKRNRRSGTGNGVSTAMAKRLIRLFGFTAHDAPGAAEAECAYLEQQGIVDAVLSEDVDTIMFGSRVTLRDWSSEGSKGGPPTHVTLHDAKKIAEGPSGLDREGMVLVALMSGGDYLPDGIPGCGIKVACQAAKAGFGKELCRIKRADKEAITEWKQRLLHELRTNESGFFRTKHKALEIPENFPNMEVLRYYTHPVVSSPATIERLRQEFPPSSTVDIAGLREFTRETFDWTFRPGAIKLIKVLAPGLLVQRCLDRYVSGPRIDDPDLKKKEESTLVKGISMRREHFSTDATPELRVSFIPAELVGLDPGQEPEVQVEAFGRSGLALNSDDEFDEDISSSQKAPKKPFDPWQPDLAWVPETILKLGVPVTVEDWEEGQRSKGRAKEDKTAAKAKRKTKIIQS
Described as above. Particulars: protein: recombinant; tags: C-terminal His6; chain copies: 2; four-way junction of 4 strands (b/h/r/x).

Series [1] has as its target T3, CtGEN1 (Chaetomium thermophilum? (printed C. …, UniProt G0RYN2 1-487)).
T3 sequence: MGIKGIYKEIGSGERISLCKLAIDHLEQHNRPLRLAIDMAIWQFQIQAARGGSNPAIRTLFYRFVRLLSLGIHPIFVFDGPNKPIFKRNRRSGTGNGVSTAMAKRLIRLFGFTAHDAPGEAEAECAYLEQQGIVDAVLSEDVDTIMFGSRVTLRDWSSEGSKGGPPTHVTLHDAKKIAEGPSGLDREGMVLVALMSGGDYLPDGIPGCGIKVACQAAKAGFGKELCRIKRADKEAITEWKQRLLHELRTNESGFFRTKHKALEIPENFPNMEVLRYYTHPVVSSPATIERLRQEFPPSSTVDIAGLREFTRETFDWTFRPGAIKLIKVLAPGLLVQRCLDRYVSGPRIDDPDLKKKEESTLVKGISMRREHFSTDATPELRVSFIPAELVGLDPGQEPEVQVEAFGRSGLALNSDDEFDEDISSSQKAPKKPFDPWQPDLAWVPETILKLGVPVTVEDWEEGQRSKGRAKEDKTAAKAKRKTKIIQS
Described as above. Particulars: protein: recombinant; tags: C-terminal His6; four-way junction of 4 strands (b/h/r/x).

A further series concerns the target T4, CtGEN1 D143A (Chaetomium thermophilum? (printed C. …, UniProt G0RYN2 1-487, D143A)).
T4 sequence: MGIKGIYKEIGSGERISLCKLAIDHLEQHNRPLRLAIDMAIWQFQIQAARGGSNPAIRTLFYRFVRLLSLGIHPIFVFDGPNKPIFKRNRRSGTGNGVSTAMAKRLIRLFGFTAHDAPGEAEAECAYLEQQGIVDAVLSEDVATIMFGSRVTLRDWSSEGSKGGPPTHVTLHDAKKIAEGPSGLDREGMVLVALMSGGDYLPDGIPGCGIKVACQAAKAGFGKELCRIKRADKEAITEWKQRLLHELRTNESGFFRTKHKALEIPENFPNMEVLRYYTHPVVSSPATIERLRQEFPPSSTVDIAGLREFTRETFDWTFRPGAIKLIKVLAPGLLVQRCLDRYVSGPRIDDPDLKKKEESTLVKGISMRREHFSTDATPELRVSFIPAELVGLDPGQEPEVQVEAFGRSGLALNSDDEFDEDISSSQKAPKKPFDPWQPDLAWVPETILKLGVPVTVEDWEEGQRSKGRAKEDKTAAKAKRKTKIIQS
Described as above. The conditions noted are these: protein: recombinant; tags: C-terminal His6; chain copies: 2; four-way junction of 4 strands (b/h/r/x).

Another series has as its target T5, CtGEN1 E122A (Chaetomium thermophilum? (printed C. …, UniProt G0RYN2 1-487, E122A)).
T5 sequence: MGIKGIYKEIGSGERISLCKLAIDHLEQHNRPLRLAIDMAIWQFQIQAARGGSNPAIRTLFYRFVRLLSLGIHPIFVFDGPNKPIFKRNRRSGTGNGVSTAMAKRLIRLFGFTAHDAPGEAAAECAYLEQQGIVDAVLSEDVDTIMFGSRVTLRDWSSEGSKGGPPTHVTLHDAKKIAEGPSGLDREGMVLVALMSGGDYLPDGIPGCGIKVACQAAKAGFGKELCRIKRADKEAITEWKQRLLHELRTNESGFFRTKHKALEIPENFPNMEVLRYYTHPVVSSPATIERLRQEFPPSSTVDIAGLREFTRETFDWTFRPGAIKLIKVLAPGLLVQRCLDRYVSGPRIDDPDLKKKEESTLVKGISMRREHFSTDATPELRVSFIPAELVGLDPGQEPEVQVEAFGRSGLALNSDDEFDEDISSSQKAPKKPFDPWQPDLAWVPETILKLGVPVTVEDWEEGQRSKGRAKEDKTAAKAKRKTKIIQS
Described as above. The conditions noted are these: protein: recombinant; tags: C-terminal His6; chain copies: 2; four-way junction of 4 strands (b/h/r/x).

In a further series the target is T6, CtGEN1 D79A (Chaetomium thermophilum? (printed C. …, UniProt G0RYN2 1-487, D79A)).
T6 sequence: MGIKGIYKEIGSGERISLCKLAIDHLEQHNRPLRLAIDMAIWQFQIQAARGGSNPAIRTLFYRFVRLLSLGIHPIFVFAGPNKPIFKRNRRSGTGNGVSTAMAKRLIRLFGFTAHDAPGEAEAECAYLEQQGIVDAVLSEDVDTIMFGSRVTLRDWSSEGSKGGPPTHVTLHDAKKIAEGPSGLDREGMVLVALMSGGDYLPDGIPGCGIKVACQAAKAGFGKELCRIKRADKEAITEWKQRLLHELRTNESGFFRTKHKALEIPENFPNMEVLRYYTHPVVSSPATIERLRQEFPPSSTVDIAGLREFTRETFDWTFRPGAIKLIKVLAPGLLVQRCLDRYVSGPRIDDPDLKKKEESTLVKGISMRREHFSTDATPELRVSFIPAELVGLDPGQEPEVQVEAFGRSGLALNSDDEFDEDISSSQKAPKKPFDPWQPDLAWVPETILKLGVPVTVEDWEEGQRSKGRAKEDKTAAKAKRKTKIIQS
The series is described as above. Particulars: protein: recombinant; tags: C-terminal His6; chain copies: 2; four-way junction of 4 strands (b/h/r/x).

For a further series, the target named is T7, CtGEN1 D38A (Chaetomium thermophilum? (printed C. …, UniProt G0RYN2 1-487, D38A)).
T7 sequence: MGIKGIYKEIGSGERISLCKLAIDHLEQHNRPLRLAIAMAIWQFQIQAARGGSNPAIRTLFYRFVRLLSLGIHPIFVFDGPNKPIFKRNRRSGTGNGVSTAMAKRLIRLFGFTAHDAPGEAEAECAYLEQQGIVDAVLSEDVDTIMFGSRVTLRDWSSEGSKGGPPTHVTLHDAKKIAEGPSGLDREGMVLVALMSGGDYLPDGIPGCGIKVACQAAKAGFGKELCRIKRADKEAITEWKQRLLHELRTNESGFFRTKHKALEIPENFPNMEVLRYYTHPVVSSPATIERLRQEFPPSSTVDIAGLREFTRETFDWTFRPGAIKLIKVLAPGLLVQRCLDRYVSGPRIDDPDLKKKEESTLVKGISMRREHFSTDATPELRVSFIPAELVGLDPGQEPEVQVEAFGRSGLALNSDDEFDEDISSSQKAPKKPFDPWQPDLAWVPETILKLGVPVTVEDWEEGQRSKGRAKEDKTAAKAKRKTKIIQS
The description is as above. The conditions noted are these: protein: recombinant; tags: C-terminal His6; chain copies: 2; four-way junction of 4 strands (b/h/r/x).

Series [2] deals with T3, CtGEN1. As to the kind of experiment: crystal structure; Mn2+ (1 mM MnCl2 soak); EMSA fitted to Hill equation, protein 2.1-43 nM (monomer); binding buffer and temperature not in material. Crystals: 100 mM HEPES pH 7.5, 2 mM MgCl2, 20% PEG10000, 7 C. Particulars: protein: recombinant; tags: C-terminal His6; 14 bp with 3' overhang 1 nt on r strand.
The target of series [3] is T3, CtGEN1. As to the kind of experiment: crystal structure; Mg2+ (2 mM MgCl2); EMSA fitted to Hill equation, protein 2.1-43 nM (monomer); binding buffer and temperature not in material. Crystals: 100 mM HEPES pH 7.5, 2 mM MgCl2, 20% PEG10000, 7 C. The conditions noted are these: protein: recombinant; tags: C-terminal His6; r strand 1-14 paired with h 17-30 (14 bp); r 16-30 paired with x 1-15 (15 bp); mismatch r15/x16.

B1: four-way junction 3 (50 nt strands) (structured_DNA)
DNA 1: GGCTAAGGGATCCGTCCTAGCAAGGGGCTGCTACCGGAGGCTTACATCGG
DNA 2: CCGATGTAAGCCTCCGGTAGCAGCCTGAGCGGTGGTTGGATGTTGACTGC
DNA 3: GCAGTCAACATCCAACCACCGCTCAACTCAACTGCAGTCTAGATGGACTG
DNA 4: CAGTCCATCTAGACTGCAGTTGAGTCCTTGCTAGGACGGATCCCTTAGCC
The Kd is a measure of binding affinity in units of concentration. As for B1, the Kd with CtGEN1 D141A is 10 ± 0.01 nM; in the series with CtGEN1 E120A, 6.5 ± 0.1 nM; in the series with CtGEN1 [1], 7.7 ± 0.01 nM; with CtGEN1 D143A, 7.1 ± 0.01 nM; with CtGEN1 E122A it was 4.6 ± 0.04 nM; in the series with CtGEN1 D79A, 5.9 ± 0.05 nM. Further, the Kd with CtGEN1 D38A was 6.2 ± 0.05 nM.

B2: R-stem duplex as modeled in 5CNQ (dsDNA)
DNA 1: TCCAACCACCGCTCA
DNA 2: GAGCGGTGGTTGGA
modifications: 5'-phosphate at cleaved 5' end of h strand product
As to B2, the binding result in the series with CtGEN1 [2] is given as “binds”.

B3: junction 3 resolution product (crystal) (structured_DNA)
DNA 1: TCCAACCACCGCTCAACTCAACTGCAGTCT
DNA 2: GAGCGGTGGTTGGA
DNA 3: AGACTGCAGTTGAGTC
modifications: 5'-phosphate at cleaved 5' end of h strand product
As for B3, in the series with CtGEN1 [3], the binding result was “binds”.
